# Key:
# [1] = system: HUVE cells; test: Fisp12 cell attachment assay, HUVE cells; format: cell-based, human; details: coating 20 μg/ml, HUVE cells
# Experimental: (§1) The capacity of Fisp12 to affect cell adhesion was also investigated. Fisp12 cell attachment assays were performed essentially as described (Oliver et al., [1989]). 96-well immunological plates were coated for 16 hours at 4° C. with 20 μg/ml Cyr61, Fisp12 or fibronectim (Gibco BRL) in PBS containing 0.1 mg/ml BSA and blocked with 10 mg/ml BSA for 1 hour at room temperature. HUVE cells were plated at 10^4 cells/well in F12K media with 10% FBS (Hyclone Laboratories, Inc., Logan, Utah); NIH 3T3 fibroblasts were plated at 3×10^4 cells/well and Mv1Lu cells were plated at 5×10^4 cells/well in minimal essential medium (MEM) with 10% FBS. After 1 hour incubation cells were fixed, stained with methylene blue and quantified as described (Oliver et al., [1989]). Cell spreading was examined on cells plated on 100 mm polystyrene petri dishes coated with 2.5 ml of a 20 μg/ml solution of Cyr61, Fisp12 or fibronectin. 10^7 cells were plated on each dish and cell spreading was analyzed 90 minutes after plating by microscopy at 100× magnification.
# [2] = system: NIH 3T3 fibroblasts; test: Fisp12/Cyr61 cell attachment and spreading, NIH 3T3; format: cell-based, mouse; details: for cell attachment to coated dishes: coating 20 μg/ml, NIH 3T3 fibroblasts
# Experimental: Another embodiment of the invention is directed to the use of Cyr61 to mediate cellular attachment to the extracellular matrix. Induction of cellular adhesion was investigated using murine Cyr61, fibronectin, and bovine serum albumin (BSA). Immunological 96-well plates (Falcon brand) were coated with 50 μl of 0.1% BSA in PBS at 4° C. in the presence of 0-30 μg/ml concentrations of murine Cyr61 or fibronectin. After two hours exposure to the coating solution, non-diluted immune or pre-immune antisera (30 μl/well), or affinity-purified anti-Cyr61 antibodies were added. For some wells, the coating mixture was adjusted to 10 mM DTT or 100 mM HCl. After 16 hours incubation, the coating solution was removed and the well surface was blocked with 1% BSA in phosphate-buffered saline (PBS) for 1 hour at room temperature. HUVE cells were plated in Ham's complete F12K medium [GIBCO-BRL, Inc.; Ham, Proc. Natl. Acacd. Sci. (USA) 53:786 (1965)] at 5×10^3-10^4 cells/well. Cycloheximide was added to 100 μg/ml immediately before plating and monensin was added to 1 μM 14 hours before plating. After a 2-hour incubation at 37° C., the wells were washed with PBS and attached cells were fixed and stained with methylene blue. The attachment efficiency was determined by quantitative dye extraction and measurement of the extract absorbance at 650 nm. Oliver et al., J. Cell. Sci. 92:513-518 (1989).
# as §1
# [3] = system: mink lung epithelial (Mv1Lu) cells; test: Fisp12 cell attachment assay, Mv1Lu cells; format: cell-based; details: coating 20 μg/ml
# Experimental: as §1
# [4] = system: NIH 3T3 fibroblasts; test: Thymidine incorporation (mitogen potentiation), NIH 3T3; format: cell-based, mouse
# Experimental: More specifically, NIH 3T3 fibroblast cells were plated on 24-well plates at 3×10^4 cells/well and grown in DMEM with 10% fetal bovine serum (Intergen Co., Purchase, N.Y.) for 3-4 days and incubated with medium containing 0.2% FBS for the following 48 hours. The following compounds, at the parenthetically noted final concentrations, were then added to the plated cells in fresh DMEM containing 0.2% fbs and [^3H]-thymidine (1 μCi/ml final concentration; ICN Biomedicals, Inc., Costa Mesa, Calif.): bFGF (15 ng/ml), PDGF-BB (30 ng/ml), and murine Cyr61 (0.5-5 μg/ml). These compounds were added to individual plates according to the following pattern: 1) no supplementation; 2) murine Cyr61; 3) bFGF; 4) murine Cyr61 and bFGF; 5) PDGF-BB; and 6) murine Cyr61 and PDGF. After 18-20 hours of incubation, cells were washed with PBS and fixed with 10% trichloroacetic acid. DNA was dissolved in 0.1 N NaOH and thymidine incorporation was determined. […] Without any supplements, 3T3 cells incorporated approximately 1.8×10^4 cpm of [^3H]-thymidine, in the presence or absence of Cyr61. Cells exposed to bFGF alone incorporated about 1.2×10^5 cpm; cells contacting bFGF and murine Cyr61 incorporated 2×10^5 cpm. Cells receiving PDGF-BB incorporated about 1.2×10^5 cpm; and cells exposed to PDGF-BB and murine Cyr61 incorporated approximately 2.4×10^5 cpm.
# DNA synthesis for HUVE cells and NIH 3T3 fibroblasts was measured by thymidine incorporation as described previously (Kireeva et al., [1996]) with minor modifications. HUVE cells were grown in 24-well plates to a subconfluent state, serum-starved for 24 hours and treated with F12K medium containing 10% fetal bovine serum (FBS), 1 μCi/ml [^3H]-thymidine and 10 ng/ml basic Fibroblast Growth Factor (bFGF) (Gibco-BRL, Inc.) with various concentrations of Cyr61 and Fisp12 as indicated. NIH 3T3 fibroblasts were grown to subconlfluence, serum-starved for 48 hours, and treated with Minimal Essential Medium (MEM) containing 0.5% FBS, 1 μCi/ml [^3H]-thymidine, bFGF and various concentrations of Cyr61 or Fisp12. Thymidine incorporation into the trichloroacetic acid-insoluble fraction was determined after 24 hour incubation. Logarithmically grown mink lung epithelial cells (Mv1lu, CCL64) were treated with various concentrations of TGF-β1 (Gibco-BRL) and 2 μg/ml of Cyr61 or Fisp12 for 18 hours; [^3H]-thymidine was then added to 1 μCi/ml for 2 hours. Thymidine incorporation was determnined as described above.
Molecule,cell attachment to coated dishes [1],cell attachment to coated dishes [2],"cell spreading ([2]; dishes coated with 20 μg/ml, 90 minutes)",cell attachment to coated dishes [3],enhancement of FGF-induced DNA synthesis ([4]; NIH 3T3 fibroblasts),mitogenic activity by itself ([4]; any tested assay conditions),attachment of NIH 3T3 cells to murine Cyr61-coated surfaces ([2]; method of b177),[3H]-thymidine incorporation with PDGF-BB ([4]; PDGF-BB 30 ng/ml plus murine Cyr61 0.5-5 μg/ml),[3H]-thymidine incorporation with bFGF ([4]; bFGF 15 ng/ml plus murine Cyr61 0.5-5 μg/ml),minimum concentration for enhancement of bFGF- or PDGF-BB-induced thymidine incorporation ([4]; either cell type (NIH 3T3 or HUVE)) [µg/mL],"[3H]-thymidine incorporation, no growth factor ([4]; presence or absence of Cyr61)"
"Fisp12: Cysteine-rich murine protein, SEQ ID NO:6, mouse ortholog of CTGF (protein, listed as Mus musculus) MLASVAGPISLALVLLALCTRPATGQDCSAQCQCAAEAAPHCPAGVSLVLDGCGCCRVCAKQLGELCTERDPCDPHKGLFCDFGSPANRKIGVCTAKDGAPCVFGGSVYRSGESFQSSCKYQCTCLDGAVGCVPLCSMDVRLPSPDCPFPRRVKLPGKCCKEWVCDEPKDRTAVGPALAAYRLEDTFGPDPTMMRANCLVQTTEWSACSKTCGMGISTRVTNDNTFCRLEKQSRLCMVRPCEADLEENIKKGKKCIRTPKIAKPVKFELSGCTSVKTYRAKFCGVCTDGRCCTPHRTTTLPVEFKCPDGEIMKKNMMFIKTCACHYNCPGDNDIFESLYYRKMYGDMA",promoted the attachment,promoted the attachment,promotes cell spreading,promoted the attachment,enhance DNA synthesis induced by fibroblast growth factor,did not exhibit any mitogenic activity,,,,,
"Cyr61: Cysteine-rich ECM signaling protein; murine sequence SEQ ID NO:2, recombinant from Baculovirus-infected Sf9 cells (protein, listed as Mus musculus) MSSSTFRTLAVAVTLLHLTRLALSTCPAACHCPLEAPKCAPGVGLVRDGCGCCKVCAKQLNEDCSKTQPCDHTKGLECNFGASSTALKGICRAQSEGRPCEYNSRIYQNGESFQPNCKHQCTCIDGAVGCIPLCPQELSLPNLGCPNPRLVKVSGQCCEEWVCDEDSIKDSLDDQDDLLGLDASEVELTRNNELIAIGKGSSLKRLPVFGTEPRVLFNPLHAHGQKCIVQTTSWSQCSKSCGTGISTRVTNDNPECRLVKETRICEVRPCGQPVYSSLKKGKKCSKTKKSPEPVRFTYAGCSSVKKYRPKYCGSCVDGRCCTPLQTRTVKMRFRCEDGEMFSKNVMMIQSCKCNYNCPHPNEASFRLYSLFNDIHKFRD",promoted the attachment,promoted the attachment,,promoted the attachment,,,"promoted the attachment of NIH 3T3 cells, though less effectively than fibronectin",approximately 2.4×10^5 cpm,2×10^5 cpm,0.5 to 1.0,approximately 1.8×10^4 cpm

# — patent US7521540B2, “CYR61 compositions and methods” (Munin Corporation, priority 1996, dated 2009)
